Laboratory results reported in PMC3872242 (Journal of molecular biology, 2013).
Square brackets hold non-standard residues; d marks the D form. Ends that are not written are not given here. pS = N[C@@H](COP(=O)(O)O)C(=O)O

Biological target: T1, Human 14-3-3γ (human, UniProt P61981 2-247)
T1 sequence: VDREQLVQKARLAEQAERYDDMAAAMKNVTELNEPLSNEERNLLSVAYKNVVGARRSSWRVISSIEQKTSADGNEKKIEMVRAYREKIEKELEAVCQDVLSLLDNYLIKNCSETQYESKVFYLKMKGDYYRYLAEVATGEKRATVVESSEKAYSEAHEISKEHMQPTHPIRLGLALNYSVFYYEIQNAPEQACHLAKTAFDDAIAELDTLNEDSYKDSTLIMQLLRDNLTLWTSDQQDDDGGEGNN
Test: crystal structure

binding result: binds
Binder: MPTPDATTPQAKGFRRAV[pS]ELDAKQAEAIMSPRFIGRRQSLIE [THp-(1-43), Ser19-phosphorylated N-terminal peptide of human tyrosine hydroxylase]
